Where a chain is given by its changes, count along the chain named. Names may count otherwise.
B1: P1AF7977 (HLA-G-0090-VL-S32P/CD3 P035-093 (P035)) (bispecific antibody, human IgG1, kappa, L234A L235A)
light 1: EVQLLESGGGLVQPGGSLRLSCAASGFTFSSYAMNWVRQAPGKGLEWVSRIRSKYNNYATYYADSVKGRFTISRDDSKNTLYLQMNSLRAEDTAVYYCVRASNFPASYVSYFAYWGQGTLVTVSSASVAAPSVFIFPPSDEQLKSGTASVVCLLNNFYPREAKVQWKVDNALQSGNSQESVTEQDSKDSTYSLSSTLTLSKADYEKHKVYACEVTHQGLSSPVTKSFNRGEC
light 2: not shown
heavy 1: QVQLQQSGPGLLKPSQTLSLTCAISGDSVSSNRAAWNWIRQSPSRGLEWLGRTYYRSKWYNDYAVSVQGRITLIPDTSKNQFSLRLNSVTPEDTAVYYCASVRAVAPFDYWGQGVLVTVSSASTKGPSVFPLAPSSKSTSGGTAALGCLVEDYFPEPVTVSWNSGALTSGVHTFPAVLQSSGLYSLSSVVTVPSSSLGTQTYICNVNHKPSNTKVDEKVEPKSCDKTHTCPPCPAPEAAGGPSVFLFPPKPKDTLMISRTPEVTCVVVDVSHEDPEVKFNWYVDGVEVHNAKTKPREEQYNSTYRVVSVLTVLHQDWLNGKEYKCKVSNKALGAPIEKTISKAKGQPREPQVCTLPPSRDELTKNQVSLSCAVKGFYPSDIAVEWESNGQPENNYKTTPPVLDSDGSFFLVSKLTVDKSRWQQGNVFSCSVMHEALHNHYTQKSLSLSP
heavy 2: not shown
notes: 2+1 T cell bispecific: light chain 1 is the crossed VH(CD3)-CL chain, light chain 2 the HLA-G light chain (two copies, CLM-00046); also called HLA-G TCB
B2: P1AF7978 (HLA-G-0090-VL-S32P/CD3 Clone 22 (Cl22)) (bispecific antibody, human IgG1, kappa, L234A L235A)
light 1: B1 light 1 with T28Q, A101H, S102T, N103T, A106S, F112Y, A113G
light 2: not shown
heavy 1: B1 heavy 1
heavy 2: not shown
notes: 2+1 T cell bispecific: light chain 1 is the crossed VH(CD3)-CL chain, light chain 2 the HLA-G light chain (two copies, CLM-00046); also called HLA-G-0090-VL-S32P/CD3 Cl22; HLA-G TCB
B3: P1AF7979 (HLA-G-0090-VL-S32P/CD3 V9) (bispecific antibody, human IgG1, kappa, L234A L235A)
light 1: EVQLVESGGGLVQPGGSLRLSCAASGYSFTGYTMNWVRQAPGKGLEWVALINPYKGVSTYNQKFKDRFTISVDKSKNTAYLQMNSLRAEDTAVYYCARSGYYGDSDWYFDVWGQGTLVTVSSASVAAPSVFIFPPSDEQLKSGTASVVCLLNNFYPREAKVQWKVDNALQSGNSQESVTEQDSKDSTYSLSSTLTLSKADYEKHKVYACEVTHQGLSSPVTKSFNRGEC
light 2: not shown
heavy 1: B1 heavy 1
heavy 2: not shown
notes: as for B1
B4: HLA-G-0090-VL-N31D (antibody, IgG1, V domains shown)
VH: QVQLQQSGPGLLKPSQTLSLTCAISGDSVSSNRAAWNWIRQSPSRGLEWLGRTYYRSKWYNDYAVSVQGRITLIPDTSKNQFSLRLNSVTPEDTAVYYCASVRAVAPFDYWGQGVLVTVSS
VL: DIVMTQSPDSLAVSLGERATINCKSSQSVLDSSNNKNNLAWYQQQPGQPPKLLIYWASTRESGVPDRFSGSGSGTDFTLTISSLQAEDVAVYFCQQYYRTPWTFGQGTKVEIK
notes: also called HLA-G-0090-N31D
B5: HLA-G-0090-VL-N31L (antibody, IgG1, V domains shown)
VH: B4 VH
VL: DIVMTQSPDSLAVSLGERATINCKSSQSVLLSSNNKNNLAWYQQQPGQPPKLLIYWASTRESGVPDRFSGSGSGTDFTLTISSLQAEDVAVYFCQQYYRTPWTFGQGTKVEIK
notes: also called HLA-G-0090-N31L
B6: HLA-G-0090-VL-N31Q (antibody, IgG1, V domains shown)
VH: B4 VH
VL: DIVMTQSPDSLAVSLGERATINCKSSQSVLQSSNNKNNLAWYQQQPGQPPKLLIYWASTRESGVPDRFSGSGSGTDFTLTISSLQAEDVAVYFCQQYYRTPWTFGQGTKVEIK
notes: also called HLA-G-0090-N31Q
B7: HLA-G-0090-VL-N31S (antibody, IgG1, V domains shown)
VH: B4 VH
VL: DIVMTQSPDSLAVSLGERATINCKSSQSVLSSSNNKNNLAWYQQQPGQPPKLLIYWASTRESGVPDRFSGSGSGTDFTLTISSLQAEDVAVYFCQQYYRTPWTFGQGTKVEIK
notes: also called HLA-G-0090-N31S
B8: HLA-G-0090-VL-N31T (antibody, IgG1, V domains shown)
VH: B4 VH
VL: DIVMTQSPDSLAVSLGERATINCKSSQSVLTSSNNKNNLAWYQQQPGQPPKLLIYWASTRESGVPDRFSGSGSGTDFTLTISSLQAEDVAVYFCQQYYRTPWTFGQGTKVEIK
notes: also called HLA-G-0090-N31T
B9: HLA-G-0090-VL-N31Y (antibody, IgG1, V domains shown)
VH: B4 VH
VL: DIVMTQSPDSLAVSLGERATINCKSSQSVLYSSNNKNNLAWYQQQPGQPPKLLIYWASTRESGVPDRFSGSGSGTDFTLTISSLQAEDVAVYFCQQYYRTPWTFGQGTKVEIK
notes: also called HLA-G-0090-N31Y
B10: HLA-G-0090-VL-N31Y-N38Y (antibody, IgG1, V domains shown)
VH: B4 VH
VL: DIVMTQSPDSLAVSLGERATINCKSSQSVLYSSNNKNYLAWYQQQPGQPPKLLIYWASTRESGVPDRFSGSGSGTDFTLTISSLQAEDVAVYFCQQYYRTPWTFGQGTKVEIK
notes: also called HLA-G-0090-VL-N31Y-N38Y-GL; HLA-G-0090-N31Y-N38Y

What was measured:
[1] = molecular target: T1, human CD3 expressed on cells (Jurkat NFAT reporter cells; human T cells isolated from PBMCs) (human, UniProt P07766 23-207); test: flow cytometry on human T cells isolated from PBMCs; detection with Alexa Fluor 488 anti-human IgG
T1 construct: on cells it is part of the CD3/TCR complex; also called CD3 on Jurkat cells; CD3 expressed on T-cells

[2] = molecular target: T2, human HLA-G expressed on cells (JEG3 cells, natural; SKOV3 cells transfected with recombinant HLA-G) (human, UniProt P17693 25-338); test: cell-based or functional assay
[3] = molecular target: T2, human HLA-G expressed on cells (JEG3 …); test: cell-based or functional assay; remark: listed apart in the source
[4] = molecular target: T2, human HLA-G expressed on cells (JEG3 …); test: flow cytometry, cell binding on JEG3 cells
[5] = molecular target: T2, human HLA-G expressed on cells (JEG3 …); test: flow cytometry, cell binding on SKOV3 HLA-G cells
[6] = molecular target: T3, recombinant single-chain HLA-G monomer/human HLA-G β2M MHC class I complex (human); test: SPR single cycle kinetics (Biacore T200, 25 C); antibody captured via Fc on CM3 chip, HLA-G complex as analyte
T3 construct: also called wt-HLA-G complex; wt-HLA-G antigen

T1 sequence (P07766 23-207 limits assumed): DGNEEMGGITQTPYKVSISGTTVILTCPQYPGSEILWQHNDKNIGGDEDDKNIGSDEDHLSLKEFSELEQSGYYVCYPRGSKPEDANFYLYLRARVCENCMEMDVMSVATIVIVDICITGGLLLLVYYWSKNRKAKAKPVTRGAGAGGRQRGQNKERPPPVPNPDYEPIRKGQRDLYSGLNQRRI

| Binder | binding result [1] | T cell mediated cytotoxicity induction EC50 (nM), JEG3 (Caspase 8 activation) [2] | T cell mediated cytotoxicity induction EC50 (nM), SKOV3 HLA-G (Caspase 8 activation) [2] | IFNgamma induction EC50 (nM), JEG3 [3] | IFNgamma induction EC50 (nM), SKOV3 HLA-G [3] | EC50 [4] | EC50 [5] | Kd [6] | koff [6] | kon [6] | t½ [6] |
| --- | --- | --- | --- | --- | --- | --- | --- | --- | --- | --- | --- |
| B1 | binds | 12 nM | 1.4 nM | 20 nM | 30 nM | 0.42 nM | 1.5 nM |  |  |  |  |
| B2 | binds | 2.6 nM | 1.36 nM | 2.2 nM | 2.6 nM | 0.12 nM | 0.15 nM |  |  |  |  |
| B3 | binds | 4.6 nM | 1 nM | 29 nM | 16 nM | 0.36 nM | 0.58 nM |  |  |  |  |
| B4 |  |  |  |  |  |  |  | 20.2 nM | 0.00391 s⁻¹ | 194000 M⁻¹ s⁻¹ | 2.96 min |
| B5 |  |  |  |  |  |  |  | 1.7 nM | 0.00871 s⁻¹ | 5.28e+06 M⁻¹ s⁻¹ | 1.33 min |
| B6 |  |  |  |  |  |  |  | 2 nM | 0.00373 s⁻¹ | 1.91e+06 M⁻¹ s⁻¹ | 3.1 min |
| B7 |  |  |  |  |  |  |  | 2.4 nM | 0.000922 s⁻¹ | 383000 M⁻¹ s⁻¹ | 12.5 min |
| B8 |  |  |  |  |  |  |  | 2.3 nM | 0.000769 s⁻¹ | 342000 M⁻¹ s⁻¹ | 15 min |
| B9 |  |  |  |  |  |  |  | 2 nM | 0.00107 s⁻¹ | 549000 M⁻¹ s⁻¹ | 10.8 min |
| B10 |  |  |  |  |  |  |  | 23.6 nM |  |  | 0 min |
